Test results as given in patent publication US20250326813A1 (ELPIS BIOPHARMACEUTICALS, published 2025).
Positions count from the first letter of the chain named. Names and notes keep the numbering of the source. Each block holds one binder with its values, some of them ahead of it.

How the values were obtained:
[1] = target: T1, human IL2Rα Fc fusion protein (human, UniProt P01589 22-213, limits assumed); test: ELISA on coated receptor-Fc, anti-His detection, single point 10 µM
T1 construct: also called CD25; not shown: Fc part
T1 sequence (looked up): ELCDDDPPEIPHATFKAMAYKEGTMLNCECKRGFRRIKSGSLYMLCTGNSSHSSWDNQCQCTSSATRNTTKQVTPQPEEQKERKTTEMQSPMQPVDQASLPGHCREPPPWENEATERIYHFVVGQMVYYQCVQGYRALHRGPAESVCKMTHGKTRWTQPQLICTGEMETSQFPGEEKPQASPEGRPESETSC
Description: (§1) Back-mutations were characterized for their binding activities to IL2Rβ and IL2Rα receptors by ELISA. Briefly, 384 well plate was immobilized with human IL2Rα and IL2Rβ Fc fusion proteins at a final concentration of 2 μg/mL in 1× PBS in total volume of 25 μL per well. The plate was incubated overnight at 4° C. and blocked with 80 μL of superblock per well for 1 hour. […] The IL2 mutant binding was detected by adding 25 μL of anti-His HRP diluted at 1:5000 in 1× PBST. In between each step, the plate was washed three times with 1× PBST using a plate washer. […] The plate was then developed with 25 μL of TMB substrate for five minutes and stopped by adding 25 μl of 2N sulfuric acid. The plate was read at OD450 nm Biotek plate reader (Table 6) and the data was analyzed with Prism 8.1 software to generate bar graph (FIG. 5).

[2] = target: T2, human IL2Rβ Fc fusion protein (human, UniProt P14784 27-239); test: as above
T2 construct: also called ILR2β; CD122; not shown: Fc part
T2 sequence (looked up): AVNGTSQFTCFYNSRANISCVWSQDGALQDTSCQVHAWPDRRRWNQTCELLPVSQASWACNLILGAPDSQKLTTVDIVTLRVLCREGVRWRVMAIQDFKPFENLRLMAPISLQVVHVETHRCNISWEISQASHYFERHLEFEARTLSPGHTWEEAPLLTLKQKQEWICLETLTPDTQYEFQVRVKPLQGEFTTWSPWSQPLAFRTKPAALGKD
Description: as §1

[3] = target: T1, human IL2Rα Fc fusion protein; test: ELISA: human IL2Rα Fc fusion coated at 2 µg/mL, purified His-tagged IL2 titrated from 1 µM in 5x steps, anti-His HRP, OD450
Description: (§2) Mammalian cell-produced agonists were characterized for their binding activities to respective IL2Rβ and IL2Rα receptors by ELISA. Briefly, 384 well plate was immobilized with human IL2Rα and IL2Rβ Fc fusion proteins at a final concentration of 2 μg/mL in 1× PBS in total volume of 25 μL per well. The plate was incubated overnight at 4° C. and blocked with 80 μL of superblock per well for 1 hour. The purified clones were added to IL2Rα or IL-2Rβ wells in parallel in duplicates as a titration, with the highest concentration of 1 μM, followed by a 10 point 5× serial dilution of the clones. The binding activity was detected by adding 25 μL of anti-His HRP diluted at 1:5000 in 1× PBST. In between each step, the plate was washed three times with 1× PBST using a plate washer. The plate was then developed with 25 μL of TMB substrate for five minutes and stopped by adding 25 μL of 2N sulfuric acid. The plate was read at OD450 nm Biotek plate reader and the bar graph at 1 μM of IL2 was generated with Prism 8.1 software (FIG. 2).

[4] = target: T2, human IL2Rβ Fc fusion protein; test: ELISA on coated receptor-Fc, anti-His detection; grade by OD450 (weak: 0.3-0.7)
Description: as §2

[5] = target: T2, human IL2Rβ Fc fusion protein; test: ELISA: human IL2Rβ Fc fusion coated at 2 µg/mL, purified His-tagged IL2 titrated from 1 µM in 5x steps, anti-His HRP, OD450
Description: as §2

[6] = target: T1, human IL2Rα Fc fusion protein; test: ELISA on coated receptor-Fc, anti-His detection
Description: as §2

[7] = target: T1, human IL2Rα Fc fusion protein; test: ELISA on coated receptor-Fc, anti-His detection; grade by OD450 (weak: 0.3-0.7)
Description: as §2

Average OD (450 nm) [1]: 0.113 OD450 | Average OD (450 nm) [2]: 0.093 OD450 | binding result [3]: no binding (tested: 1000 nM) | OD450 [4]: 0.3 to 0.7 od
B1: EP575, mammalian cell-produced (ligand)
chain: APASSSTKKTQLQLEHLLLDLQMILNGINNYKNPLLTDMLTRKFYMPKKATELKHLQCLEEELKPLEEVLNLAQSKNFHLRNKGILGDISNIVLALKGSETTFMCEYADETATIVEFLNRWITFSQSIISTLT
notes: also called 2021EP16-D09

binding result [5]: no binding (tested: 1000 nM) | binding result [6]: no binding (tested: OD450 < 0.1; 1 µM)
B2: EP580, mammalian cell-produced, with F35L, R38D and F42R (ligand)
chain: APASSSTKKTQLQLEHLLLDLQMILNGINNYKNPLLTDMLTRKFYMPKKATELKHLQCLEEELKPLEEVLNLAQSKNFHLRIRDLLNKINELHRYIKGSETTFMCEYADETATIVEFLNRWITFSQSIISTLT
notes: His-Flag tag not in the parts; also called 2021EP16-H09

OD450 [7]: 0.3 to 0.7 od | OD450 [4]: 0.3 to 0.7 od
B3: EP567, mammalian cell-produced (ligand)
chain: APASSSTKKTQLQLEHLLLDLQMILNGINNYKNPLLTDMLTRKFYMPKKATELKHLQCLEEELKPLEEVLNLAQSKNFHLSLREPIGNIVTSVRELKGSETTFMCEYADETATIVEFLNRWITFSQSIISTLT
notes: also called 2021EP21-C04

Average OD (450 nm) [1]: 0.082 OD450 | Average OD (450 nm) [2]: 0.082 OD450
B4: EP669, EP575 back-mutation clone (ligand)
chain: B1 chain with N82P, I85L, L86I, G87S
notes: Mammalian-produced, His-tagged

binding result [5]: no binding (tested: 1000 nM) | binding result [3]: no binding (tested: 1000 nM)
B5: EP576, mammalian cell-produced, with F35L, R38D and F42R (ligand)
chain: APASSSTKKTQLQLEHLLLDLQMILNGINNYKNPLLTDMLTRKFYMPKKATELKHLQCLEEELKPLEEVLNLAQSKNFHLLPRNKISKTKVMVHELKGSETTFMCEYADETATIVEFLNRWITFSQSIISTLT
notes: His-Flag tag not in the parts; also called 2021EP21-C10

OD450 [7]: 0.3 to 0.7 od | OD450 [4]: 0.3 to 0.7 od
B6: EP581, mammalian cell-produced (ligand)
chain: APASSSTKKTQLQLEHLLLDLQMILNGINNYKNPLLTDMLTRKFYMPKKATELKHLQCLEEELKPLEEVLNLAQSKNFHLRSREVVSRIDAIILELKGSETTFMCEYADETATIVEFLNRWITFSQSIISTLT
notes: also called 2021EP16-C10

Average OD (450 nm) [1]: 0.082 OD450 | Average OD (450 nm) [2]: 0.09 OD450
B7: EP671, EP575 back-mutation clone (ligand)
chain: B1 chain with N82P, I85L, L86I, S90N
notes: as for B4

Average OD (450 nm) [1]: 0.113 OD450 | Average OD (450 nm) [2]: 0.17 OD450
B8: EP668, EP575 back-mutation clone (ligand)
chain: B1 chain with N82P, K83R, I85L, L86I
notes: as for B4

Average OD (450 nm) [1]: 0.084 OD450 | Average OD (450 nm) [2]: 0.082 OD450
B9: EP675, EP575 back-mutation clone (ligand)
chain: B1 chain with I85L, L86I, G87S, D88N
notes: as for B4

binding result [6]: no binding (tested: OD450 < 0.1; 1 µM) | OD450 [4]: 0.3 to 0.7 od
B10: EP573, mammalian cell-produced, with F35L, R38D and F42R (ligand)
chain: APASSSTKKTQLQLEHLLLDLQMILNGINNYKNPLLTDMLTRKFYMPKKATELKHLQCLEEELKPLEEVLNLAQSKNFHLNRTDLVGDVNATIKALKGSETTFMCEYADETATIVEFLNRWITFSQSIISTLT
notes: His-Flag tag not in the parts; also called 2021EP16-E02
